These results are taken from publication PMC5673658, “Single-Molecule Fluorescence Methods to Study Plant Hormone Signal Transduction Pathways” (Frontiers in Plant Science, 2017).

The target in data set [1] is phosphorylated BES1 (pBES1), BES1 with a His-tag phosphorylated by BIN2 (UniProt Q9LN63). Kind of data set: CoSMoS (colocalization single-molecule spectroscopy, TIRFM); His-tagged pBES1 immobilised on the slide; binding percentage of 14-3-3κ with pBES1 before and after incubation for 1 h with pBKI1C at >1,000 times the concentration of pBES1.
Sequence of phosphorylated BES1 (pBES1), BES1 with a His-tag phosphorylated by BIN2 (Q9LN63 whole entry): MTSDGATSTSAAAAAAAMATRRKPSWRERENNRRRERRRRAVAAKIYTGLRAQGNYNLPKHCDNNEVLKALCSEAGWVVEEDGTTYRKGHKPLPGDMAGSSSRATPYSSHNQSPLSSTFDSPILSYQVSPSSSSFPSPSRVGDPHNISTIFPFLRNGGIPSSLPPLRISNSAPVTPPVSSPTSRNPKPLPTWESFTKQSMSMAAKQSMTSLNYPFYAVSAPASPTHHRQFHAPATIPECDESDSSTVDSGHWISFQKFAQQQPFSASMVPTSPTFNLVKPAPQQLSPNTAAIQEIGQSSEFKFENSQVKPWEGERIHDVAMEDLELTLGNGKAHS
For data set [2], the target named is 14-3-3κ as used in the CoSMoS competition experiment (UniProt P48348). The description is as above.
Data set [3] deals with the molecule itself. Kind of data set: single-molecule TIRF microscopy, stepwise photobleaching; His-tagged BES1 phosphorylated by BIN2 (30 min, 37°C) immobilised on the slide; 14-3-3κ/C103S-alexa555 added; bleaching steps counted in 188 trajectories; labeling efficiency 34.7%.

As for “14-3-3κ as used in the CoSMoS competition experiment (from UniProt P48348 1-248)”, the binding percentage of 14-3-3κ with pBES1 before pBKI1C in data set [1] stood at 18%. As for “phosphorylated BKI1 C terminal (pBKI1C), BKI1C phosphorylated by JKC (domain or fragment)”, in data set [2], the binding percentage of 14-3-3κ with pBES1 left after pBKI1C (>1,000 times the concentration of pBES1, 1 h) is 9%.

B1: alexa555-labeled 14-3-3κ/C103S (natural protein, UniProt P48348 1-248, looked up)
chain: MATTLSRDQYVYMAKLAEQAERYEEMVQFMEQLVSGATPAGELTVEERNLLSVAYKNVIGSLRAAWRIVSSIEQKEESRKNEEHVSLVKDYRSKVETELSSISSGILRLLDSHLIPSATASESKVFYLKMKGDYHRYLAEFKSGDERKTAAEDTMIAYKAAQDVAVADLAPTHPIRLGLALNFSVFYYEILNSSEKACSMAKQAFEEAIAELDTLGEESYKDSTLIMQLLRDNLTLWTSDMQEQMDEA
modifications: alexa555 (maleimide derivative) on a cysteine, site not given; labeling efficiency 34.7%
notes: 14-3-3κ (14-3-3 kappa), a plant 14-3-3 protein of the brassinosteroid signaling pathway; printed molecular weight 29073.70 D; also called 14-3-3κ/C103S-alexa555; 14-3-3κ-alexa555; source: E. coli BL21 (DE3)-plysS, purified (amylose and gel filtration columns)
Consider B1, for which the stoichiometry N (usually the number of molecules, sites or subunits per partner or assembly) in data set [3] came out at 2.
